Measurements: patent publication US20050020492A1 (MERCK, published 2005)
Like-named read-outs stand apart in the source and are kept apart here. Positions of bridges follow the written chain, without caps; N, C: chain ends. Non-standard residues stand in square brackets, D forms with d. No end group written: not given here. Nle = CCCC[C@H](N)C(=O)O

How the values were obtained:
[1] = biological target: T1, human MCH-1R (human, UniProt Q99705 1-353); test: SPA, displacement of [125I]-[Phe13,Tyr19]-hMCH, CHO/MCH-1R membranes
T1 construct: Function: 293AEQ17/MCH-1R cells; also called hMCH-1R
T1 sequence (Q99705 whole entry): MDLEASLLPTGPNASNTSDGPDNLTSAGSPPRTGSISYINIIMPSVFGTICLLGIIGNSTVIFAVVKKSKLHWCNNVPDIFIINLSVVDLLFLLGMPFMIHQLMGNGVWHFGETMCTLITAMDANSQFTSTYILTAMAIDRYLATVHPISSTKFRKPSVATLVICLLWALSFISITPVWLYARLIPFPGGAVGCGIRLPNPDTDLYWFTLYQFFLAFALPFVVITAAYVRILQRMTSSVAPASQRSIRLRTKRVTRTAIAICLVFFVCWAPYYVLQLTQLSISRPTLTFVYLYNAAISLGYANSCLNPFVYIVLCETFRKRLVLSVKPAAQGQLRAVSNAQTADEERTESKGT
Description: (§1) After equilibrating at room temperature for 3 hours, the plates were read in a TopCount (Packard, Meriden, Conn.). IC₅₀ calculations were performed using Prism 3.0 (GraphPad. Software, San Diego, Calif.). The IC₅₀ values were measured in three different experiments.

[2] = biological target: T1, human MCH-1R; test: cell-based or functional assay
[3] = biological target: T2, human MCH-2R (human, UniProt Q969V1 1-340); test: cell-based or functional assay
T2 sequence (Q969V1 whole entry): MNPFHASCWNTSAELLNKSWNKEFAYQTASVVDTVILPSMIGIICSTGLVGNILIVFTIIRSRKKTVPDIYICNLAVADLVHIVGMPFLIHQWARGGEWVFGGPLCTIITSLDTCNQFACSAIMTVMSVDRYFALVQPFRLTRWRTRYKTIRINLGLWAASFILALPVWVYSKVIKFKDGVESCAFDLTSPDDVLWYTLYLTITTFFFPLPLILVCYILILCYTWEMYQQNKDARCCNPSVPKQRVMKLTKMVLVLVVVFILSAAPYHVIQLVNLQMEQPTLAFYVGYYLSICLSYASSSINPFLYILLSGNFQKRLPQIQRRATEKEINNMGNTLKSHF

[4] = biological target: T2, human MCH-2R; test: SPA, displacement of [125I]-[Phe13,Tyr19]-hMCH, MCH-2R membranes
Description: as §1

[5] = biological target: T2, human MCH-2R; test: as above; remark: listed apart in the source
Description: as §1

[6] = biological target: T2, human MCH-2R; test: as above; remark: listed apart in the source
Description: as §1

[7] = biological target: T1, human MCH-1R; test: cell-based or functional assay; remark: listed apart in the source
[8] = biological target: T2, human MCH-2R; test: cell-based or functional assay; remark: listed apart in the source
[9] = biological target: T1, human MCH-1R; test: cell-based or functional assay; remark: listed apart in the source
[10] = biological target: T2, human MCH-2R; test: cell-based or functional assay; remark: listed apart in the source
[11] = biological target: T1, human MCH-1R; test: SPA, displacement of [125I]-[Phe13,Tyr19]-hMCH, CHO/MCH-1R membranes; remark: listed apart in the source
Description: as §1

[12] = biological target: T1, human MCH-1R; test: ratio of the two SPA IC50s
Description: as §1

[13] = biological target: T1, human MCH-1R; test: SPA, displacement of [125I]-[Phe13,Tyr19]-hMCH, CHO/MCH-1R membranes
[14] = biological target: T2, human MCH-2R; test: SPA, displacement of [125I]-[Phe13,Tyr19]-hMCH, MCH-2R membranes
[15] = biological target: T1, human MCH-1R; test: ratio of the two SPA IC50s
[16] = biological target: T1, human MCH-1R; test: cell-based or functional assay; remark: listed apart in the source
[17] = biological target: T2, human MCH-2R; test: cell-based or functional assay; remark: listed apart in the source
[18] = biological target: T1, human MCH-1R; test: SPA, displacement of [125I]-[Phe13,Tyr19]-hMCH, CHO/MCH-1R membranes; remark: listed apart in the source
Description: as §1

[19] = biological target: T1, human MCH-1R; test: ratio of the two SPA IC50s; remark: listed apart in the source

Activation %, aequorin bioluminescence [2] [%]	IC50 [4] [nM]	IC50 [5] [nM]	IC50 [6] [nM]	Activation %, aequorin bioluminescence [7] [%]	Activation %, aequorin bioluminescence [8] [%]	EC50, aequorin bioluminescence [8] [nM]	Activation %, aequorin bioluminescence [9] [%]	IC50 [18] [nM]	EC50, aequorin bioluminescence [7] [nM]	Binder	also measured
91	134									XCMLGRVYRPC (N-terminal acetyl; D-Cit (D-citrulline) at position 6; C-terminal amide; disulfide cycle) [SEQ. ID. NO. 14 (Ac-D-Cit^6 analog of Ac-hMCH(6-16)-NH2)]	IC50 [1]: 3 nM; EC50, aequorin bioluminescence [2]: 920 nM; Activation %, aequorin bioluminescence [3]: 68%; EC50, aequorin bioluminescence [3]: 310 nM
100	0.5	0.5	0.5	100	100	30.7	100			DFDMLRCMLGRVYRPCWQV (disulfide 7-16 (inferred)) [human MCH]	Activation %, aequorin bioluminescence [3]: 100%; EC50, aequorin bioluminescence [3]: 30.7 nM; Activation %, aequorin bioluminescence [10]: 100%; EC50, aequorin bioluminescence [10]: 30.7 nM
		1600					130			XCXLNRVYRPC (HELM PEPTIDE1{[ac].[dR].C.[Nle].L.N.R.V.Y.R.P.C.[am]}$PEPTIDE1,PEPTIDE1,3:R3-12:R3$$$V2.0; SMILES CCCC[C@@H]1NC(=O)[C@@H](NC(=O)[C@@H](CCCNC(=N)N)NC(C)=O)CSSC[C@@H](C(N)=O)NC(=O)[C@@H]2CCCN2C(=O)[C@H](CCCNC(=N)N)NC(=O)[C@H](Cc2ccc(O)cc2)NC(=O)[C@H](C(C)C)NC(=O)[C@H](CCCNC(=N)N)NC(=O)[C@H](CC(N)=O)NC(=O)[C@H](CC(C)C)NC1=O) [SEQ. ID. NO. 31 (D-Arg^6, Nle^8, Asn^10 analog of Ac-hMCH(6-16)-NH2)]	IC50 [11]: 0.28 nM; Selectivity 2/1 (MCH-2R/MCH-1R IC50 ratio) [12]: 5700 ratio; EC50, aequorin bioluminescence [9]: 240 nM; Selectivity 2/1 (MCH-2R/MCH-1R EC50 activity ratio) [9]: 23 ratio; Activation %, aequorin bioluminescence [10]: 23%; EC50, aequorin bioluminescence [10]: 5500 nM
										[dR]C[Nle]LNRVYRPC-NH2 (disulfide 2-11 (inferred)) [SEQ. ID. NO. 32 (ΔAc, D-Arg^6, Nle^8, Asn^10 analog of Ac-hMCH(6-16)-NH2)]	IC50 [13]: 0.09 nM; IC50 [14]: 250 nM; Selectivity 2/1 (MCH-2R/MCH-1R IC50 ratio) [15]: 890; Activation %, aequorin bioluminescence [16]: 130%; EC50, aequorin bioluminescence [16]: 350 nM; Selectivity 2/1 (MCH-2R/MCH-1R EC50 activity ratio) [16]: 4; Activation %, aequorin bioluminescence [17]: 53%; EC50, aequorin bioluminescence [17]: 1470 nM
99	2	2	2	99			99	0.5	20	Ac-RCMLGRVYRPC-NH2 (disulfide 2-11 (inferred), also called ID; NO; parent compound) [Ac-hMCH(6-16)-NH2]	IC50 [11]: 0.5 nM; IC50 [1]: 1.4 nM; EC50, aequorin bioluminescence [2]: 20 nM; EC50, aequorin bioluminescence [9]: 20 nM
			7	121	102	15		0.44	51	Ac-RCMLARVYRPC-NH2 (disulfide 2-11 (inferred)) [SEQ. ID. NO. 16 (Ala^10 analog of Ac-hMCH(6-16)-NH2)]	Selectivity 2/1 (MCH-2R/MCH-1R EC50 activity ratio) [7]: 0.29 ratio; Selectivity 2/1 (MCH-2R/MCH-1R IC50 ratio) [19]: 16 ratio
			27	123	74	57		0.03	32	Ac-RCMLLRVYRPC-NH2 (disulfide 2-11 (inferred)) [SEQ. ID. NO. 17 (Leu^10 analog of Ac-hMCH(6-16)-NH2)]	Selectivity 2/1 (MCH-2R/MCH-1R EC50 activity ratio) [7]: 1.8 ratio; Selectivity 2/1 (MCH-2R/MCH-1R IC50 ratio) [19]: 1900 ratio
